For this data set, the target named is T1, F-P564 peptide.
T1 chain: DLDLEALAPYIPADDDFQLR

B1: HIF-1alpha specific prolyl-4-hydroxylase-2 (PHD-2) (protein)
chain: MANDSGGPGGPSPSERDRQYCELCGKMENLLRCSRCRSSFYCCKEHQRQDWKKHKLVCQGSEGALGHGVGPHQHSGPAPPAAVPPPRAGAREPRKAAARRDNASGDAAKGKVKAKPPADPAAAASPCRAAAGGQGSAVAAEAEPGKEEPPARSSLFQEKANLYPPSNTPGDALSPGGGLRPNGQTKPLPALKLALEYIVPCMNKHGICVVDDFLGKETGQQIGDEVRALHDTGKFTDGQLVSQKSDSSKDIRGDKITWIEGKEPGCETIGLLMSSMDDLIRHCNGKLGSYKINGRTKAMVACYPGNGTGYVRHVDNPNGDGRCVTCIYYLNKDWDAKVSGGILRIFPEGKAQFADIEPKFDRLLFFWSDRRNPHEVQPAYATRYAITVWYFDADERARAKVKYLTGEKGVRVELNKPSDSVGKDVF
Turning to B1, the “prolyl hydroxylation of F-P564 peptide, mass analysis” value is “the 564th proline group in F-P564 was hydroxylated by the addition of prolyl hydroxylase”.

For the origin of these results see patent US20070020718.
